T1: biotinylated recombinant TPBG protein (Homo sapiens (Human), UniProt Q13641 32-355, Biotinylated; the number and positions of the biotin labels are not stated and the letters do not carry them.)
T1 sequence: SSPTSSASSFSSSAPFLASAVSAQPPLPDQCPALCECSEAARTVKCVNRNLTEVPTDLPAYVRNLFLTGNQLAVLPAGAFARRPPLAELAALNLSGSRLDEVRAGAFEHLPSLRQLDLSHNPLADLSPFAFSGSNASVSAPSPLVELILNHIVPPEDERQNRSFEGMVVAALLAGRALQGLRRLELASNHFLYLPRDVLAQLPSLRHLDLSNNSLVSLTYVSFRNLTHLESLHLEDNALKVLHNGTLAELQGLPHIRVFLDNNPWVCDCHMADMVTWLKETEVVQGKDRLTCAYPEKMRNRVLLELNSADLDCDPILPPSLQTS

T2: human TPBG-hFc (human, UniProt Q13641 32-355)
T2 construct: also called immunogen A; hFc tagged TPBG protein; not shown: The human IgG Fc fragment of the pCpC vector (Invitrogen V044-50) and any linker to it
T2 sequence: T1 sequence

B1: 103E2E9C2 (antibody, V domains shown)
VH: EVQLQQSGPVLVKPGASVKMSCEASGYSFIDYYMSWVKQSRGRSLEWIGVFNPYSGEIIYNQKFKGKATLTVDKSSSTAYMELSSLTSEDSGVYSCARLRISYYAIDYWGQGTSVAVSS
VL: ENVLTQSPAIMSASPGEKVTMTCRATSSVSSGHFHWYQQKSGASPKVWIYSTSNLASGVPARFSGSGSGTSFSLTISSVEAEDVATYFCQQYSGYPLTFGGGTKLEIK
notes: Mouse hybridoma antibody purified from culture supernatant; also called TPBG antibody; lead antibody
B2: 28D4E6A9 (antibody, V domains shown)
VH: DVQLVESGGGLVRPGGSLKLSCAASGFTFSNYVMSWARQSPEKRLEWVAEISTGGSHTYYSDTVTGRFTISRDNAKKALYLEMSSLRSEDTAIYYCIMFYYGSSYSMDYWGQGTSVTVSS
VL: DIQMTQSTSSLSASLGDRITISCRASQDIRNYLNWYQQKPDGTVKLLIYHTSRLHSGVPSRFSGSGSGTDYSLTISNLEQEDIATYFCQQGDTLPLTFGAGTRLELK
notes: as for B1
B3: 37H9C5G2 (antibody, V domains shown)
VH: QVQLQQSDAELVRPGASVKMSCKVSGYTFTDHTIHWMKQRPEQGLEWIGYIYPRDGSGTYNEKFKGKATLTADKSSSTAYMQLNSLTSEDSAVYFCARDGSSHYWYFDVWGTGTTVTVSS
VL: DIQMTQSPASLSASVGETVTITCRASEIIYNYLAWYQQKQGKSPQLLVYNAKTLAEGVPSRFSGSYSGTQFSLNINSLQSEDFGIYYCQHHHDTPLTFGAGTKLDLK
notes: as for B1
B4: 36A10D8B12 (antibody, V domains shown)
VH: DVQLQESGPGMVKPSQSLSLTCTVTGYSITSGYDWHWIRHFPGNKLEWMGYISYSGNTNYNPSLKSRISITHNTSKNHFFLRLNSVTTEDTATYYCARGYGNWDAMDYWGQGTSVTVSS
VL: DIVMTQSQKFMSTSVGDRVSVTCKASQIVDTNVAWYQQKPGQSPKALISSASYRYSGVPDRFTGSGSGTDFTLTISNVQSEDLAEYFCQQYNSYPLTFGAGTKLELT
notes: as for B1
B5: 99E12C7H1 (antibody, V domains shown)
VH: QIQLVQSGPELKKPGETVKISCKPSGYTFTAYGLSWVKQAPGQGFQWMGWINTYSGVPTYTDDFKGRFAFSLETSAGTASLQITNLKNEDTATYFCARSSIPPFEYWGPGTTLTVSS
VL: SFVMTQSPKFLLVSVGDRVTITCKASQSVSNDVAWYQQKPGQPPRVLIYFASNRYTGVPDRFTGSGYGTDFTFTISTVQAEDLALYFCQQDYSSPWTFGGGTKLEIK
notes: as for B1
B6: 106D5G3D10 (antibody, V domains shown)
VH: EVQLVESGGGLVKPGGSLKLSCAASGFTFSDYGMHWVRQAPEKGLEWVGYISSGTYVVYYADTVKGRFTISRDNAKNTLFLQMTSLRSEDTAIYYCSTYGSNPFDYWGQGTTLTVSS
VL: QLVLTQSPAIMSASPGEKVTITCSATSSVSSMHWFQQKPVTSPKLWIYSTSNLASGVPTRFSGSGSGTSYSLTISRMEAEDAATYYCQQRSGYPPIFTFGSGTKLEIK
notes: as for B1
B7: 5G4H10G5 (antibody, V domains shown)
VH: EVQLVESGGDLVQPGGSLKLFCAASGFTFSTYGLSWVRQTPDKRLELVATITNNDGSAYYPDSVKGRFTISRDKAKNTLFLQMTSLKSEDTAMYYCARETGFGSSYLFDYWGQGTLVTVSA
VL: NIVMTQTPKFLLVSAGDRVTITCKASQSVSNDVAWYQQKPGQSPKLLIYFATNRYTGVPNRFTGSGYGTEFTFTISSVQAEDLAVYFCQQDYSSPTFGGGTKLEIK
notes: as for B1
B8: 39A11G5F2 (antibody, V domains shown)
VH: QVQLQQSGAELMKPGASMRLSCKATGYTFTGYWLEWIKRRPGHGLEWIGEILPGRGSTNYNEKFKGKATFTAETSSNTAYMQLTSLTTEDSAIYYCARGGRDFDNWGQGTTLTVSS
VL: DIQMTQSTSSLSASLGDRVTISCSASQGINNHLNWYQQKPDGTVKLLIYYTSSLHSGVPSRFSGSGSGTDYSLTISNLEPEDIAIYYCQQFSKLPYTFGGGTKVEMK
notes: as for B1
B9: 52C9E9F6 (antibody, V domains shown)
VH: QVQLQQSGAELMKPGASVKLSCKATGYTFTGYWIEWIKQRPGHGLEWIGEILPGRGSTDYNEKFKGKATFTADTSSNTAYMQLSSLTTEDSAIYYCTRGRLDFTYWGQGTLVTVSA
VL: B8 VL with S7T, N30R, H32Y, I85T, F91Y, L94V, Y96W, V104L, M106I
notes: as for B1

Substitutions are numbered along the chain they refer to.

The first experiment concerns the target T1, biotinylated recombinant TPBG protein. In words: competitive ELISA; row antibody 5 ug/mL; competitor: coated 39A11G5F2. The procedure: (§1) The purified antibodies to be tested were diluted to 1 μg/mL using PBS, and coated with high-adsorption of 96-well microplates at […]. After overnight coating at 4[…], 250 μL of blocking buffer (PBS containing 0.01% (v/v) Tween20 and 1% (w/w) BSA) was added to block coating at room temperature for 1 h, and 0.05 μg/mL of biotinylated recombinant TPBG protein was added to each well. Meanwhile, 5 μg/mL final concentration of competitive antibodies, i.e. the purified antibodies obtained from Embodiment 2 with the clone number of 12B12C7C3, 5G4H10G5, 37H9C5G2, 39A11G5F2, 52C9E9F6, 28D4E6A9, 36A10D8B12, 99E12C7H1, 103E2E9C2 and 106D5G3D10 were added and incubated at 25-37° C. for 1-2 h. The plates were washed three times with plate-washing buffer (PBS containing 0.01% (v/v) Tween20) and HRP (horseradish peroxidase)-labeled streptavidin (purchased from Sigma) was added. After incubating at 37° C. for 0.5 h, the plates were washed three times with plate-washing buffer (PBS containing 0.01% (v/v) Tween20), and 100 μL of TMB substrate was added to each well and the plates were further incubated at room temperature for 30 min prior to adding 100 μL of stop buffer (1.0N HCl) to each well. A₄₅₀ₙₘ values were read using an ELISA microplate reader (SpectraMax 384plus purchased from Molecular Device) and results were shown in FIG. 6. The higher the values of the competition rate, the closer the antigen surface of the two antibodies are.
For the molecule B1, the competition rate was determined as 0%.
Consider B2, for which the competition rate worked out at 0%.
Same read-out and setting: to B3 belongs 3%.
Same read-out and setting: to B4 belongs 4%; to B5, 1%; to B6, 1%.
On the same count and under the same terms, with B7 the figure was 10%; with B8, 96%; with B9, 97%.

For a further experiment the target is unchanged. In words: competitive ELISA; row antibody 5 ug/mL; competitor: coated 106D5G3D10. The procedure:
as §1
On the technique in general: An ELISA detects its analyte on a solid surface through an enzyme-linked reagent.
Consider B1, for which the competition rate was found to be 0%.
Still for that read-out and setting: to B2 belongs 5%.
Still for that read-out and setting: to B3 belongs 4%; to B4, 14%.
On the same count and under the same terms, to B5 belongs 12%; to B6, 94%; to B7, 3%.
Consider B8, for which the competition rate was 4%.
The same measure, in the same setting: to B9 belongs 7%.

Another experiment shares this target. In words: competitive ELISA; row antibody 5 ug/mL; competitor: coated 103E2E9C2. The procedure:
as §1
Regarding B1, the competition rate was 88%.
The same measure, in the same setting: with B2 the figure was 88%.
As for B3, the competition rate stood at 38%.
Still for that read-out and setting: to B4 belongs 40%.
Still for that read-out and setting: with B5 the figure was 1%; with B6, 0%; with B7, 2%.
Regarding B8, the competition rate came out at 0%.
The same measure, in the same setting: with B9 the figure was 0%.

For another experiment the target is unchanged. In words: competitive ELISA; row antibody 5 ug/mL; competitor: coated 36A10D8B12. As to the method: as §1
On to B1, for which the competition rate was determined as 31%.
Still for that read-out and setting: with B2 the figure was 75%; with B3, 94%.
The same measure, in the same setting: to B4 belongs 85%; to B5, 8%.
Turning to B6, the competition rate turned out to be 1%.
As to B7, the competition rate turned out to be 1%.
As for B8, the competition rate was found to be 0%.
With B9, the competition rate is 19%.

The target in a further experiment is T2, human TPBG-hFc. In words: ELISA, coated human TPBG-hFc 1.0 ug/mL; antibody 0.002 nM. As to the method: (§2) The purified immunogen A (as for its method of preparation please refer to step 1 in Example 1) diluting with PBS to a final concentration of 1.0 μg/mL was aliquoted into a 96-well ELISA plate at 100 μL per well, and sealed with a parafilm and incubated at 4° C. overnight. The plate was washed twice with plate washing buffer (PBS containing 0.01% (v/v) Tween 20), and blocked with blocking buffer (PBS containing 0.01% (v/v) Tween 20 and 1% (w/w) BSA) at room temperature for 2 h. The blocking buffer was discarded, and 100 μL per well of the purified antibody obtained from Embodiment 2 was added. After incubating at 37° C. for 2 h, the plate was washed for three times with plate washing buffer (PBS containing 0.01% (v/v) Tween 20). HRP (horseradish peroxidase)-labeled secondary antibody (purchased from Sigma) was added and incubated at 37° C. for 2 h, and the plate was washed for three times using plate washing buffer (PBS containing 0.01% (v/v) Tween 20). 100 μL of TMB substrate was aliquoted into each well, incubated at room temperature for 30 min, and 100 μL of stop buffer (1.0N HCl) per well was subsequently added. A₄₅₀ₙₘ values were read using the ELISA plate reader (SpectraMax 384plus purchased from Molecular Device), and the results were shown in FIG. 6 and table 6. […] In Table 6 the IgG control herein is a mice IgG control, the data in the Table are OD₄₅₀ₘₙ values, and Blank means the OD₄₅₀ₘₙ value when there is only PBS buffer in the plate.
B1 had an OD450nm of 0.14 OD450nm.
Same read-out and setting: to B2 belongs 0.14 OD450nm; to B3, 0.11 OD450nm.
The same measure, in the same setting: with B4 the figure was 0.18 OD450nm.
B5 had an OD450nm of 0.21 OD450nm.
Still for that read-out and setting: to B6 belongs 0.16 OD450nm; to B7, 0.1 OD450nm; to B8, 0.11 OD450nm.
B9 gave an OD450nm of 0.12 OD450nm.

A further experiment deals with T2, human TPBG-hFc. In words: ELISA, coated human TPBG-hFc 1.0 ug/mL; antibody 200 nM. The procedure:
as §2
Turning to B1, the OD450nm came out at 2.6 OD450nm.
Still for that read-out and setting: with B2 the figure was 2.6 OD450nm; with B3, 2.61 OD450nm.
In turn, B4 came in with an OD450nm of 2.51 OD450nm.
The same measure, in the same setting: to B5 belongs 2.93 OD450nm; to B6, 2.88 OD450nm; to B7, 2.72 OD450nm.
On the same count and under the same terms, with B8 the figure was 2.55 OD450nm.
On the same count and under the same terms, with B9 the figure was 2.65 OD450nm.

The target of another experiment is T2, human TPBG-hFc. In words: ELISA, coated human TPBG-hFc 1.0 ug/mL; antibody 2 nM. As to the method: as §2
Regarding B1, the OD450nm is 2.64 OD450nm.
Same read-out and setting: to B2 belongs 2.64 OD450nm; to B3, 2.52 OD450nm.
B4 yielded an OD450nm of 3.06 OD450nm.
Same read-out and setting: to B5 belongs 2.93 OD450nm; to B6, 2.81 OD450nm.
The same measure, in the same setting: with B7 the figure was 2.68 OD450nm.
On the same count and under the same terms, to B8 belongs 2.43 OD450nm; to B9, 2.68 OD450nm.

For the origin of these results see patent US20210198377A1 (XDCEXPLORER SHANGHAI, published 2021).
